Residue numbers refer to the chain shown, from its start. Names and notes keep the numbering of the source.
B1: equine IgG1 T286V (antibody, part only; not given: Variable domains, not shown: another chain or arm of the molecule)
constant: ASTTAPKVFALAPGCGTTSDSTVALGCLVSGYFPEPVKVSWNSGSLTSGVHTFPSVLQSSGFYSLSSMVTVPASTWTSETYICNVVHAASNFKVDKRIEPIPDNHQKVCDMSKCPKCPAPELLGGPSVFIFPPNPKDTLMITRTPEVTCVVVDVSQENPDVKFNWYMDGVEVRVATTRPKEEQFNSTYRVVSVLRIQHQDWLSGKEFKCKVNNQALPQPIERTITKTKGRSQEPQVYVLAPHPDELSKSKVSVTCLVKDFYPPEINIEWQSNGQPELETKYSTTQAQQDSDGSYFLYSKLSVDRNRWQQGTTFTCGVMHEALHNHYTQKNVSKNPGK
B2: equine IgG1 Q311A (antibody, part only; not given: variable domains, not shown: another chain or arm of the molecule)
constant: B1 constant with V174T, Q199A
B3: equine IgG1 T286Y (antibody, part only; not given: variable domains, not shown: another chain or arm of the molecule)
constant: B1 constant with V174Y
B4: equine IgG1 T286W (antibody, part only; not given: Variable domains, not shown: another chain or arm of the molecule)
constant: B1 constant with V174W
B5: equine IgG4 D312W (antibody, part only; not given: Variable domains, not shown: another chain or arm of the molecule)
constant: ASTTAPKVFPLASHSAATSGSTVALGCLVSSYFPEPVTVSWNSGALTSGVHTFPSVLQSSGLYSLSSMVTVPASSLKSQTYICNVAHPASSTKVDKKIVIKECNGGCPAECLQVGPSVFIFPPKPKDVLMISRTPTVTCVVVDVGHDFPDVQFNWYVDGVETHTATTEPKQEQFNSTYRVVSVLPIQHKWWLSGKEFKCKVNNKALPAPVERTISKPTGQPREPQVYVLAPHRDELSKNKVSVTCLVKDFYPTDIDIEWKSNGQPEPETKYSTTPAQLDSDGSYFLYSKLTVETNRWQQGTTFTCAVMHEALHNHYTEKSVSKSPGK
B6: equine IgG4 Y436C (antibody, part only; not given: Variable domains, not shown: another chain or arm of the molecule)
constant: B5 constant with W190D, Y316C
B7: equine IgG4 Y436S (antibody, part only; not given: variable domains, not shown: another chain or arm of the molecule)
constant: B5 constant with W190D, Y316S
B8: equine IgG4 Y436D (antibody, part only; not given: variable domains, not shown: another chain or arm of the molecule)
constant: B5 constant with W190D, Y316D
B9: equine IgG4 Y436M (antibody, part only; not given: variable domains, not shown: another chain or arm of the molecule)
constant: B5 constant with W190D, Y316M
B10: equine IgG4 Y436G (antibody, part only; not given: variable domains, not shown: another chain or arm of the molecule)
constant: B5 constant with W190D, Y316G
B11: equine IgG4 T286I (antibody, part only; not given: variable domains, not shown: another chain or arm of the molecule)
constant: B5 constant with T164I, W190D
B12: equine IgG4 T286R (antibody, part only; not given: variable domains, not shown: another chain or arm of the molecule)
constant: B5 constant with T164R, W190D
B13: equine IgG4 Y436T (antibody, part only; not given: variable domains, not shown: another chain or arm of the molecule)
constant: B5 constant with W190D, Y316T
B14: equine IgG4 T286E (antibody, part only; not given: variable domains, not shown: another chain or arm of the molecule)
constant: B5 constant with T164E, W190D
B15: equine IgG4 Y436V (antibody, part only; not given: variable domains, not shown: another chain or arm of the molecule)
constant: B5 constant with W190D, Y316V
B16: equine IgG4 T286C (antibody, part only; not given: variable domains, not shown: another chain or arm of the molecule)
constant: B5 constant with T164C, W190D
B17: equine IgG4 T286H (antibody, part only; not given: variable domains, not shown: another chain or arm of the molecule)
constant: B5 constant with T164H, W190D
B18: equine IgG4 Y436L (antibody, part only; not given: variable domains, not shown: another chain or arm of the molecule)
constant: B5 constant with W190D, Y316L
B19: equine IgG4 T286L (antibody, part only; not given: variable domains, not shown: another chain or arm of the molecule)
constant: B5 constant with T164L, W190D
B20: equine IgG4 Y436A (antibody, part only; not given: variable domains, not shown: another chain or arm of the molecule)
constant: B5 constant with W190D, Y316A
B21: equine IgG4 Y436N (antibody, part only; not given: variable domains, not shown: another chain or arm of the molecule)
constant: B5 constant with W190D, Y316N
B22: equine IgG4 Y436Q (antibody, part only; not given: variable domains, not shown: another chain or arm of the molecule)
constant: B5 constant with W190D, Y316Q
B23: equine IgG4 Y436E (antibody, part only; not given: variable domains, not shown: another chain or arm of the molecule)
constant: B5 constant with W190D, Y316E
B24: equine IgG4 Y436H (antibody, part only; not given: variable domains, not shown: another chain or arm of the molecule)
constant: B5 constant with W190D, Y316H
B25: equine IgG4 T286S (antibody, part only; not given: Variable domains, not shown: another chain or arm of the molecule)
constant: B5 constant with T164S, W190D
B26: equine IgG4 T286P (antibody, part only; not given: variable domains, not shown: another chain or arm of the molecule)
constant: B5 constant with T164P, W190D
B27: equine IgG4 Y436R (antibody, part only; not given: variable domains, not shown: another chain or arm of the molecule)
constant: B5 constant with W190D, Y316R
B28: equine IgG4 T286K (antibody, part only; not given: variable domains, not shown: another chain or arm of the molecule)
constant: B5 constant with T164K, W190D
B29: equine IgG4 T286Q (antibody, part only; not given: Variable domains, not shown: another chain or arm of the molecule)
constant: B5 constant with T164Q, W190D
B30: equine IgG4 Y436F (antibody, part only; not given: variable domains, not shown: another chain or arm of the molecule)
constant: B5 constant with W190D, Y316F
B31: equine IgG4 D312Y (antibody, part only; not given: variable domains, not shown: another chain or arm of the molecule)
constant: B5 constant with W190Y
B32: equine IgG4 T286D (antibody, part only; not given: variable domains, not shown: another chain or arm of the molecule)
constant: B5 constant with T164D, W190D
B33: equine IgG4 Y436K (antibody, part only; not given: variable domains, not shown: another chain or arm of the molecule)
constant: B5 constant with W190D, Y316K
B34: equine IgG4 T286M (antibody, part only; not given: variable domains, not shown: another chain or arm of the molecule)
constant: B5 constant with T164M, W190D
B35: equine IgG4 T286A (antibody, part only; not given: variable domains, not shown: another chain or arm of the molecule)
constant: B5 constant with T164A, W190D
B36: equine IgG4 T286G (antibody, part only; not given: variable domains, not shown: another chain or arm of the molecule)
constant: B5 constant with T164G, W190D
B37: equine IgG4 T286F (antibody, part only; not given: variable domains, not shown: another chain or arm of the molecule)
constant: B5 constant with T164F, W190D
B38: equine IgG4 Y436W (antibody, part only; not given: variable domains, not shown: another chain or arm of the molecule)
constant: B5 constant with W190D, Y316W
B39: equine IgG4 Y436I (antibody, part only; not given: variable domains, not shown: another chain or arm of the molecule)
constant: B5 constant with W190D, Y316I

Target: equine FcRn (large alpha subunit p51) / equine beta-2-microglobulin complex, biotinylated (equine) (UniProt P30441)
Sequence of UniProt P30441 (P30441 21-118, one chain of several): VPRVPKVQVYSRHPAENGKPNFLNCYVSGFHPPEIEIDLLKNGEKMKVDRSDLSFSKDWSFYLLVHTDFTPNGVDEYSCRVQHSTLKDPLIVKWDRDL
Assay: SPR (Biacore), pH 6

Q: With B1 as the binder, how does the Kd read?
A: The Kd was 0.0162 µM.

Q: How did the Kd turn out when B2 was run?
A: Its Kd is 0.021 µM.

Q: B3 was tested. Which Kd did it give?
A: Its Kd is 0.015 µM.

Q: B4 was tested. Which Kd did it give?
A: Its Kd is 0.0184 µM.

Q: For B5, which Kd is on record?
A: Its Kd is 0.0121 µM.

Q: Which Kd does the source give for B6 here?
A: Its Kd is 0.057 µM.

Q: With B7 as the binder, how does the Kd read?
A: Its Kd is 0.0309 µM.

Q: For B8, which Kd is on record?
A: Its Kd is 0.0255 µM.

Q: How did the Kd turn out when B9 was run?
A: Its Kd is 0.0143 µM.

Q: B10 was tested. Which Kd did it give?
A: Its Kd is 0.0341 µM.

Q: For B11, which Kd is on record?
A: The Kd was 0.0133 µM.

Q: B12 was tested. Which Kd did it give?
A: The Kd was 0.0214 µM.

Q: B13 was tested. Which Kd did it give?
A: The Kd was 0.0272 µM.

Q: B14 was tested. Which Kd did it give?
A: The Kd was 0.252 µM.

Q: Which Kd does the source give for B15 here?
A: Its Kd is 0.0132 µM.

Q: For B16, which Kd is on record?
A: Its Kd is 0.0344 µM.

Q: B17 was tested. Which Kd did it give?
A: The Kd was 0.0271 µM.

Q: How did the Kd turn out when B18 was run?
A: The Kd was 0.016 µM.

Q: For B19, which Kd is on record?
A: Its Kd is 0.0175 µM.

Q: How did the Kd turn out when B20 was run?
A: Its Kd is 0.0216 µM.

Q: Which Kd does the source give for B21 here?
A: Its Kd is 0.0498 µM.

Q: Which Kd does the source give for B22 here?
A: The Kd was 0.0256 µM.

Q: How did the Kd turn out when B23 was run?
A: The Kd was 0.0915 µM.

Q: For B24, which Kd is on record?
A: The Kd was 0.0616 µM.

Q: With B25 as the binder, how does the Kd read?
A: The Kd was 0.0241 µM.

Q: For B26, which Kd is on record?
A: The Kd was 0.0052 µM.

Q: B27 was tested. Which Kd did it give?
A: Its Kd is 0.0483 µM.

Q: With B28 as the binder, how does the Kd read?
A: The Kd was 0.0247 µM.

Q: With B29 as the binder, how does the Kd read?
A: The Kd was 0.0245 µM.

Q: For B30, which Kd is on record?
A: The Kd was 0.0126 µM.

Q: Which Kd does the source give for B31 here?
A: The Kd was 0.0191 µM.

Q: For B32, which Kd is on record?
A: Its Kd is 0.492 µM.

Q: For B33, which Kd is on record?
A: Its Kd is 0.0203 µM.

Q: Which Kd does the source give for B34 here?
A: Its Kd is 0.0203 µM.

Q: How did the Kd turn out when B35 was run?
A: The Kd was 0.0487 µM.

Q: B36 was tested. Which Kd did it give?
A: The Kd was 0.0233 µM.

Q: How did the Kd turn out when B37 was run?
A: The Kd was 0.0222 µM.

Q: For B38, which Kd is on record?
A: The Kd was 0.0202 µM.

Q: B39 was tested. Which Kd did it give?
A: Its Kd is 0.012 µM.

From patent US20260070987A1
